# Values of other authors, collected in US20230279355A1, “METHOD FOR THE IN VITRO OR EX VIVO AMPLIFICATION OF STEM CELLS OF BROWN OR BEIGE ADIPOCYTES” (CENTRE NATIONAL DE LA RECHERCHE SCIENTIFIQUE, priority 2020, published 2023).
# System: UCP1
# Conditions: described in the literature
molecule,measurement,value
"Epidermal Growth Factor (protein, UniProt P01133 23-1207, looked up, Pro-epidermal growth factor) Pro-epidermal growth factor: PQHWSCPEGTLAGNGNSTCVGPAPFLIFSHGNSIFRIDTEGTNYEQLVVDAGVSVIMDFHYNEKRIYWVDLERQLLQRVFLNGSRQERVCNIEKNVSGMAINWINEEVIWSNQQEGIITVTDMKGNNSHILLSALKYPANVAVDPVERFIFWSSEVAGSLYRADLDGVGVKALLETSEKITAVSLDVLDKRLFWIQYNREGSNSLICSCDYDGGSVHISKHPTQHNLFAMSLFGDRIFYSTWKMKTIWIANKHTGKDMVRINLHSSFVPLGELKVVHPLAQPKAEDDTWEPEQKLCKLRKGNCSSTVCGQDLQSHLCMCAEGYALSRDRKYCEDVNECAFWNHGCTLGCKNTPGSYYCTCPVGFVLLPDGKRCHQLVSCPRNVSECSHDCVLTSEGPLCFCPEGSVLERDGKTCSGCSSPDNGGCSQLCVPLSPVSWECDCFPGYDLQLDEKSCAASGPQPFLLFANSQDIRHMHFDGTDYGTLLSQQMGMVYALDHDPVENKIYFAHTALKWIERANMDGSQRERLIEEGVDVPEGLAVDWIGRRFYWTDRGKSLIGRSDLNGKRSKIITKENISQPRGIAVHPMAKRLFWTDTGINPRIESSSLQGLGRLVIASSDLIWPSGITIDFLTDKLYWCDAKQSVIEMANLDGSKRRRLTQNDVGHPFAVAVFEDYVWFSDWAMPSVMRVNKRTGKDRVRLQGSMLKPSSLVVVHPLAKPGADPCLYQNGGCEHICKKRLGTAWCSCREGFMKASDGKTCLALDGHQLLAGGEVDLKNQVTPLDILSKTRVSEDNITESQHMLVAEIMVSDQDDCAPVGCSMYARCISEGEDATCQCLKGFAGDGKLCSDIDECEMGVPVCPPASSKCINTEGGYVCRCSEGYQGDGIHCLDIDECQLGEHSCGENASCTNTEGGYTCMCAGRLSEPGLICPDSTPPPHLREDDHHYSVRNSDSECPLSHDGYCLHDGVCMYIEALDKYACNCVVGYIGERCQYRDLKWWELRHAGHGQQQKVIVVAVCVVVLVMLLLLSLWGAHYYRTQKLLSKNPKNPYEESSRDVRSRRPADTEDGMSSCPQPWFVVIKEHQDLKNGGQPVAGEDGQAADGSMQPTSWRQEPQLCGMGTEQGCWIPVSSDKGSCPQVMERSFHMPSYGTQTLEGGVEKPHSLLSANPLWQQRALDPPHQMELTQ",expression of UCP1,able to inhibit the expression of UCP1
